Data taken from patent US10012655B2, “Method for quantitating total HMGB1 protein in biological samples” (INSTITUT PASTEUR, priority 2008, dated 2018).

Legend:
iDCs = assay: Cytokine and chemokine production by DCs (MAP/Luminex); type: cell-based, human; conditions: iDCs 48 h with 1 or 10 μg/ml
Procedure: (§1) FIG. 3 (a)-(e). aNK-dependent maturation of HIV-1-infected iDCs is mediated by HMGB1 and involves RAGE. (a) Left panel: iDCs were cultured for 24 h either alone or with aNK cells, in the presence of blocking anti-HMGB1 antibodies (10 μg/ml) or glycyrrhizin (10 μg/ml). The maturation status of DCs was determined by flow cytometry with CD86 and HLA-DR—specific antibodies. Right panel: same experiment, but performed with HIV-1 infected iDCs. Data represent mean±sd of at least three independent experiments, and statistical comparisons were made with the non parametric Mann-Whitney test. * p<0.05. (b) iDC (10^6 cells/ml) were cultured for 48 h with increasing concentrations (1-10 μg/ml) of rh-HMGB1. Cells were then stained with anti-CD86, -HLA-DR, -CD80, -CD83, DC-LAMP and -CD40 antibodies and analyzed by flow cytometry. (c) Influence of rh-HMGB1 on cytokine and chemokine production (determined by MAP) by DCs. iDCs (10^6 cells/ml) were incubated for 48 h in medium or in presence of rh-HMGB1 (1 or 10 μg/ml). As a positive control, iDCs were stimulated with LPS (DC0). […] (e) iDC, DC0, uninfected or HIV-1-infected iDC cocultured for 24 h with aNK cells, were incubated with rh-HMGB1 (1 μg/ml) and subsequently stained with anti-RAGE antibodies and analyzed by flow cytometry. […]

RAGE = assay: Surface expression of RAGE on DCs (flow cytometry); type: cell-based, human; conditions: uninfected iDCs incubated with 1 μg/ml
Procedure: as §1

B1: rh-HMGB1: recombinant human HMGB1 protein (R&D Systems) (protein, UniProt P09429 1-215, looked up)
High mobility group protein B1: MGKGDPKKPRGKMSSYAFFVQTCREEHKKKHPDASVNFSEFSKKCSERWKTMSAKEKGKFEDMAKADKARYEREMKTYIPPKGETKKKFKDPNAPKRPPSAFFLFCSEYRPKIKGEHPGLSIGDVAKKLGEMWNNTAADDKQPYEKKAAKLKEKYEKDIAAYRAKGKPDAAKKGVVKAEKSKKKKEEEEDEEDEEDEEEEEDEEDEDEEEDDDDE
release of the chemokines MCP1, MIP-1α, MIP-1β and IL-8 (iDCs): increased release
RAGE surface expression (RAGE): down-regulation of RAGE was observed
